According to article PMC3572039:

Biological target: T1, MBP-Δ116 (truncated XydR response regulator) del1-116 (Clostridium cellulolyticum H10 (ATCC 35319/DSM 5812)) (UniProt B8I0K9)
T1 sequence: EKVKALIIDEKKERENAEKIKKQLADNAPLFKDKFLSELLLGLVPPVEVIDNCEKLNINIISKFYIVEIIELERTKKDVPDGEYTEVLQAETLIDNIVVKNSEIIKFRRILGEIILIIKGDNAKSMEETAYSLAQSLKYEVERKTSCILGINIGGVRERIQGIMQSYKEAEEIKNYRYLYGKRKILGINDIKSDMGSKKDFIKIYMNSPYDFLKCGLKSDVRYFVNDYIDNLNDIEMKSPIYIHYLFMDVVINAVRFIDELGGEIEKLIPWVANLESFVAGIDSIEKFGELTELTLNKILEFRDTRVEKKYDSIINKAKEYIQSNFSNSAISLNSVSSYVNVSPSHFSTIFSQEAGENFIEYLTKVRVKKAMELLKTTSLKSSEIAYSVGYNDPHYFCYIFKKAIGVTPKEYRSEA
Experiment: EMSA
Conditions: 10 mM Tris pH 7.5, 150 mM KCl, 1 mM DTT, 30 ng/uL salmon sperm DNA, 0.1 ug/uL BSA, 0.05% NP-40, 2.5% glycerol, 20 C, 20 min; 20 fmol probe; 5% native PAGE

Row | Sequence | binding
1 | CCTTCTTAATCAGTTTCTAATTGCCAAAGAATAAGAGTAAAATGATTAGTAAATCTATATTCATTATAGAATGTAAACTGTTTCCAGCTCAATATAAATCCTTTTGACTTTTGTATATTAATTTTGTAAAATATCATTTTCAGTGTATTGGAGCAACATAAAAAAAGCAGCTGTAGAAAATCCAGCTGCTTTATACTTGCTATTTGTACAATTTTAGAATTACTTGTTAATACCTTATTCCGCAGC (double strand) [R6 (upstream Ccel_1656)] | binds
2 | GTATATAAGGTATTGACTTTCTTTGGCAGATGTAAGAATAGGAGTAAAATGAAAAGAACGATTAGTACATATTAACTATGTTAAAAATATTATAGAATGTAAATGGTTTCCATTTCAATATAAATCTTTTTGGTATTGGTATAAATTTTTGAATTCATTTTATCATATTTTGAAAAATTAGTAAATTATTTATTTTATTTTACACTTTTGTATATATTTTTTTAAATTTGTTAAGATATATTTTGCTATGCTTCACTCCTATACTCCTTTGG (double strand) [R3 (upstream Ccel_1229)] | binds
